Measured values from patent US20190177416A1 (NANOMAB TECHNOLOGY, published 2019).

Legend:
[1] = target: T1, human PD-L1 protein (coated antigen) (human, UniProt Q9NZQ7 19-238, limits assumed); experiment: ELISA, purified nanobody 10 ug/mL, coated PD-L1 against coated PD-L2
T1 construct: Construct not described; also called PD-L1 antigen; antigenic protein PD-L1
Protocol: (§1) (1) Coated antigenic proteins PD-L1 and PD-L2: 0.5 μg per well (5 μg/mL, 100 μL), packaged NaHCO₃ (100 mM, pH8.2) was used as a blank control and overnight at 4° C. (2) Wash the cells three times with PBST the next day, add 200 μL of 1% BSA to block at room temperature for 2 hours. (3) Each purified nanobody was diluted to 10 μg/mL, and 100 pt of each of the purified nanobodies was incubated with the coated PD-L1, PD-L2 and the blank control group, and reacted at room temperature for 1 hour. (4) Unbound antibody was washed away with PBST, and 100 μL of mouse anti-HA tag antibody (1:2000 dilution) was added and placed at room temperature for 1 hour. (5) Unbound antibody was washed away with PBST, and anti-mouse alkaline phosphatase conjugate (1:2000 dilution) was added and placed at room temperature for 1 hour. (6) Wash the unbound antibody with PBST, add alkaline phosphatase coloring solution, and read the absorbance at 405 nm on an ELISA apparatus. The specificity of the nanobody was judged based on the absorption value.

[2] = target: T2, PD-L2 (coated antigenic protein) (UniProt Q9BQ51 20-220, limits assumed); experiment: ELISA, purified nanobody 10 ug/mL on coated PD-L2, anti-HA detection
T2 sequence (looked up): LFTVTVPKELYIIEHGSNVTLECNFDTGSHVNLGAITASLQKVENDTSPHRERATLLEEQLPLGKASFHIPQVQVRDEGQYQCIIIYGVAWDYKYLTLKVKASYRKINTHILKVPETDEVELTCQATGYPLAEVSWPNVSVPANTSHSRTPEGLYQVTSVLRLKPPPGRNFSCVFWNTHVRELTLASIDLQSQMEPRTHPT
Protocol: as §1

[3] = target: T1, human PD-L1 protein (coated antigen); experiment: ELISA, purified nanobody 10 ug/mL on coated PD-L1, anti-HA detection
Protocol: as §1

[4] = target: T1, human PD-L1 protein (coated antigen); experiment: PE-ELISA, crude extract on coated PD-L1
Procedure, shortened: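 Phage clones were expressed with 1 mmol IPTG at 28° C overnight, and crude periplasmic antibody was applied to PD-L1-coated plates for 1 h at room temperature. Detection used anti-HA, then an alkaline phosphatase conjugate, read at 405 nm. A sample/control OD ratio above 3 marked a positive clone.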

[5] = target: T3, PD-L1 on 293F cells transiently transfected with the PD-L1 full-length gene (UniProt Q9NZQ7 19-290, limits assumed); experiment: flow cytometry, 293F cells transiently transfected with PD-L1 or PD-L2
T3 construct: whole, on cells; also called PD-L1 transient cells
Protocol: In addition, the specificity of the PD-L1 nanobody was detected by flow cytometry. The PD-L1 full-length gene and the PD-L2 full-length gene were transiently transfected in a conventional 293F cell, and a nano-antibody (SEQ ID NO.: 1) of PD-L1 was selected for incubation for flow cytometry.

T1 sequence (Q9NZQ7 19-238 limits assumed): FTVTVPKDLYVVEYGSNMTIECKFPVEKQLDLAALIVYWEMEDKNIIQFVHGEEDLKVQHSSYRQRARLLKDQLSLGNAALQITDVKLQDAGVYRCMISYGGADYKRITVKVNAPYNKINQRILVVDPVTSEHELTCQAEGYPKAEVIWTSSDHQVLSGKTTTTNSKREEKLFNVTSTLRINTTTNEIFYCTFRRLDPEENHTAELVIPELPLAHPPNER
T3 sequence (Q9NZQ7 19-290 limits assumed): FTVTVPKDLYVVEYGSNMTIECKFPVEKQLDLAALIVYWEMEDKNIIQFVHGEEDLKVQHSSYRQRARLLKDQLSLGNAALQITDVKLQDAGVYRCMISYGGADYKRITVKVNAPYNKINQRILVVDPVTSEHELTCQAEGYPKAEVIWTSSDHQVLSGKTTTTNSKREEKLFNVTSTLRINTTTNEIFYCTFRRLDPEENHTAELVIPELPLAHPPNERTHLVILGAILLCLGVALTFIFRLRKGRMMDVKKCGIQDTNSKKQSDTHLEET

OD ratio (PD-L1/PD-L2) [1]: 32.2 | ELISA absorbance (A405 nm) [2]: 0.118 A405 nm | ELISA absorbance (A405 nm) [3]: 3.8 A405 nm | OD ratio (experimental group (A405 nm)/control group (A405 nm)) [4]: > 20 | fold difference (PD-L1 transient cells against PD-L2 transient cells) [5]: ≥ 550 times
B1: SEQ ID NO 1 (VHH)
VHH: QVQLQESGGGSVQTGGSLRLSCTASTSIYSNNYMAWFSQSPGKGREGVAAVYMDDGRPYYADSVKGRFTISLDSAKNTMYLQMNSLKPEDTAMYYCAAAPGPLSRNYWYTSANYDYWGQGTQVTVSS
notes: pMECS-expressed; also called anti-PD-L1 nanobody No. 1; VHH numbered 1
